Three molecules from article PMC3399738 can be followed below.

Series [1] deals with T1, RPA (human heterotrimer) (human, UniProt P27694;P15927;P35244 1-616;1-270;1-121). Description: pull-down.
Series [2] deals with SSB (Escherichia coli, UniProt P0AGE0 1-178). Description: pull-down.
In series [3] the target is T1, RPA (human heterotrimer). Description: EMSA. Background: In EMSA bound probe runs differently from free probe, usually more slowly.
Series [4] concerns the target T1, RPA (human heterotrimer). Description: EMSA. The source holds these as a separate data set.

T1 sequence (P27694 whole entry, chain 1 of 3): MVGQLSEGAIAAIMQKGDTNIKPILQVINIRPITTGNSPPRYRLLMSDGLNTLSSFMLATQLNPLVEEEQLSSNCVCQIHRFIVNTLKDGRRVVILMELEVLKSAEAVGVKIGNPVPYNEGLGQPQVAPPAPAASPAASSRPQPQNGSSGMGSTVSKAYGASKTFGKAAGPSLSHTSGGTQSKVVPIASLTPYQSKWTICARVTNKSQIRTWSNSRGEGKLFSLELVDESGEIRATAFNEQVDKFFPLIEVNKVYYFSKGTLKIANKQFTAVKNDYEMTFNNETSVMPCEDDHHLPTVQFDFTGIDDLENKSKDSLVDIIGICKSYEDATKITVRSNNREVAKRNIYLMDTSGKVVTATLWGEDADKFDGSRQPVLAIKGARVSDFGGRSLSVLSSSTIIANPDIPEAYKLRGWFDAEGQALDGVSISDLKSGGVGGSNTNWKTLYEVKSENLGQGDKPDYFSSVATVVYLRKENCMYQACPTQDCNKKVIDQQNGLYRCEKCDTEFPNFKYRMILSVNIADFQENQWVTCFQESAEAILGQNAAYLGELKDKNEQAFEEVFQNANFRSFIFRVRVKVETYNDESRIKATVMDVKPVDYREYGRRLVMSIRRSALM
T1 sequence (P15927 whole entry, chain 2 of 3): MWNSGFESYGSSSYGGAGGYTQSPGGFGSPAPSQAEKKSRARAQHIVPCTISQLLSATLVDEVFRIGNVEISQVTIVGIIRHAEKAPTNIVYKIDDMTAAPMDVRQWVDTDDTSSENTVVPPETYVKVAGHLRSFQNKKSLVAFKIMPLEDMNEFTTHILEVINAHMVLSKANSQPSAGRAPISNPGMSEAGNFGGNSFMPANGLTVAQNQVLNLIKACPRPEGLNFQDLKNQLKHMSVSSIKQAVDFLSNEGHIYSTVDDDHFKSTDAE
T1 sequence (P35244 whole entry, chain 3 of 3): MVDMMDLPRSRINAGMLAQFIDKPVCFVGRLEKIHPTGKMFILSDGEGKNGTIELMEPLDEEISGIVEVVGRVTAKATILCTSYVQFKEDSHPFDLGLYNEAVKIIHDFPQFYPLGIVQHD
SSB, sequence (P0AGE0 whole entry): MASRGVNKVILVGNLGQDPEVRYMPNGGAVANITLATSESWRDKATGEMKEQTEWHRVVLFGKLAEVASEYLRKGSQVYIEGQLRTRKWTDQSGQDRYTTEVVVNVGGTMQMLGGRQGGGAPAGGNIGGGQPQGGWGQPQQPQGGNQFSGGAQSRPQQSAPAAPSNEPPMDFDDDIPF

As to TTTTTTTTTTTTTTTTTTTTTTTTTTTTTT (ssDNA) [polyT(30) 3' biotin], the binding result in series [1] and in series [2] was “binds” each time.

B1: dT30/dA30 duplex (dsDNA)
DNA 1: TTTTTTTTTTTTTTTTTTTTTTTTTTTTTT
DNA 2: AAAAAAAAAAAAAAAAAAAAAAAAAAAAAA
With B1, the binding result in series [3] is on record as “binds”.
As for TTTTTTTTTTTTTTTTTTTTTTTTTTTTTT (ssDNA) [polyT(30) 5' IRDye-700], the binding result in series [4] is reported as “binds”.
